What was measured:
PPARg:RXRa = PPARg:RXRa (Homo sapiens, UniProt P37231;P19793 full;full); assay: no ligand; PBM; 180 nM : 90 nM RXRa; PBS pH 7.4, 2% milk, 0.02% Triton X-100, 1 mM DTT, BSA, 0.4 mg/ml salmon testes DNA; conditions: tags: His kept;His cleaved; copies: 1;1; label: surface-attached array probe
RARg:RXRa = RARg:RXRa (Homo sapiens, UniProt P13631;P19793 full;full); assay: no ligand; PBM; 270 nM : 90 nM RXRa; PBS pH 7.4, 2% milk, 0.02% Triton X-100, 1 mM DTT, BSA, 0.4 mg/ml salmon testes DNA; conditions: tags: His kept;His cleaved; copies: 1;1; label: surface-attached array probe
RARg:RXRa, sequence (P13631 whole entry, chain 1 of 2): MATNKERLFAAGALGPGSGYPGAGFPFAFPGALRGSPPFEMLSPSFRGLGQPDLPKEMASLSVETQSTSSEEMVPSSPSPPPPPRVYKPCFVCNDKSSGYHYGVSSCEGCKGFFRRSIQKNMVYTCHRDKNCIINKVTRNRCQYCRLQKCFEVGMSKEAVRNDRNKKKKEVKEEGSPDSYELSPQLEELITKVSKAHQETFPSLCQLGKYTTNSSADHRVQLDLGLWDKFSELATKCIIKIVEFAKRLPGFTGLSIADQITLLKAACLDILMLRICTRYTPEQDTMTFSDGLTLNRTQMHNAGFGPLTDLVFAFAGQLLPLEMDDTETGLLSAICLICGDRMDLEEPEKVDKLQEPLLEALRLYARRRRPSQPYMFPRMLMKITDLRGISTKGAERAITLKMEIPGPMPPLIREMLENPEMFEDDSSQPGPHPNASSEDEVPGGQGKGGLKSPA
RARg:RXRa, sequence (P19793 whole entry, chain 2 of 2): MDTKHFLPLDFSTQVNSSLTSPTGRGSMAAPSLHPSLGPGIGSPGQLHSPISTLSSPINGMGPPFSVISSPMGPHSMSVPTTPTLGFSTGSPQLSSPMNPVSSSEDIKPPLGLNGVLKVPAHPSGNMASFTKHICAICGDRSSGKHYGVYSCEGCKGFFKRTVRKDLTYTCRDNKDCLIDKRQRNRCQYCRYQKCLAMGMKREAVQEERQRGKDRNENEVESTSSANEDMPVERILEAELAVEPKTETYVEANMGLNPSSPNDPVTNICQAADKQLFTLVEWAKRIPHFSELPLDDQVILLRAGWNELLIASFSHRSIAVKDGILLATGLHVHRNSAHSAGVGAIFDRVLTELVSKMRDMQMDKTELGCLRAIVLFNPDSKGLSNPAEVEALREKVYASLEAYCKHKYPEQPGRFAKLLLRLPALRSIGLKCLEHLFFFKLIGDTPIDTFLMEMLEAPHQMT
Method in brief: (§1)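 Random background probes are the reference for binding z-scores. These scores derive from regression-normalized fluorescence on custom Agilent 4×180K protein-binding microarrays incubated 1 h with ligand-free nuclear receptor dimers. Binding was detected with antibodies against each partner (one per run).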

RARb:RXRa = RARb:RXRa (Homo sapiens, UniProt P10826;P19793 full;full); assay: as above; conditions: tags: His kept;His cleaved; copies: 1;1; label: surface-attached array probe
RARb:RXRa, sequence (P10826 whole entry, chain 1 of 2): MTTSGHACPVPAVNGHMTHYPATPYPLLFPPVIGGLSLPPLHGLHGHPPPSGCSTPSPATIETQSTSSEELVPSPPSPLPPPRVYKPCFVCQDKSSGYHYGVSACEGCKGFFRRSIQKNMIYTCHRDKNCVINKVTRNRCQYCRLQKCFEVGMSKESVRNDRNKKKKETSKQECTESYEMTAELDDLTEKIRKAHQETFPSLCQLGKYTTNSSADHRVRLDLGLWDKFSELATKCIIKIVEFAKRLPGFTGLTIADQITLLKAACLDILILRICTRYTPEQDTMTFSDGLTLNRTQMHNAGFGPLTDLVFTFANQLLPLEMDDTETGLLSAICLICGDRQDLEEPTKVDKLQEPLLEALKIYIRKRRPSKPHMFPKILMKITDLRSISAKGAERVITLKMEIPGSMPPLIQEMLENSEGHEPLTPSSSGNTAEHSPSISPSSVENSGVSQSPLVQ
RARb:RXRa, sequence (P19793 whole entry, chain 2 of 2): as the sequence (P19793 whole entry, chain 2 of 2) above
Method in brief: as §1

FXR:RXRa = FXR:RXRa (Homo sapiens, UniProt Q96RI1;P19793 full;full); assay: as above; conditions: tags: His kept;His cleaved; copies: 1;1; label: surface-attached array probe
FXR:RXRa, sequence (Q96RI1 whole entry, chain 1 of 2): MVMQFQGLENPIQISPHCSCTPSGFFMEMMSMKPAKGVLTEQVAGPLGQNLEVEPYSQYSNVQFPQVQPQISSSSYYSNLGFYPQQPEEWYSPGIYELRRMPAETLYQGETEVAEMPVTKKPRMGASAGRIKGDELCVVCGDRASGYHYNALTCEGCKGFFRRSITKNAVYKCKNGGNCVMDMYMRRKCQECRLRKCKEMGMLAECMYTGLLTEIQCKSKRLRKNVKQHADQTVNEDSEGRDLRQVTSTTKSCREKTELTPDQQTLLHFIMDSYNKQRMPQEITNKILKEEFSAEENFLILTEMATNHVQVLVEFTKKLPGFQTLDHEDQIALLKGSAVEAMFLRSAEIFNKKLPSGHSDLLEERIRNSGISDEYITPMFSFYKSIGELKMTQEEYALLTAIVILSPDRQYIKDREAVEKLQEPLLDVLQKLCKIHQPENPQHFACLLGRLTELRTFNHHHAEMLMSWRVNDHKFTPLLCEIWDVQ
FXR:RXRa, sequence (P19793 whole entry, chain 2 of 2): as the sequence (P19793 whole entry, chain 2 of 2) above
Method in brief: as §1

PPARa:RXRa = PPARa:RXRa (Homo sapiens, UniProt Q07869;P19793 full;full); assay: as above; conditions: tags: GST kept;His cleaved; copies: 1;1; label: surface-attached array probe
PPARa:RXRa, sequence (Q07869 whole entry, chain 1 of 2): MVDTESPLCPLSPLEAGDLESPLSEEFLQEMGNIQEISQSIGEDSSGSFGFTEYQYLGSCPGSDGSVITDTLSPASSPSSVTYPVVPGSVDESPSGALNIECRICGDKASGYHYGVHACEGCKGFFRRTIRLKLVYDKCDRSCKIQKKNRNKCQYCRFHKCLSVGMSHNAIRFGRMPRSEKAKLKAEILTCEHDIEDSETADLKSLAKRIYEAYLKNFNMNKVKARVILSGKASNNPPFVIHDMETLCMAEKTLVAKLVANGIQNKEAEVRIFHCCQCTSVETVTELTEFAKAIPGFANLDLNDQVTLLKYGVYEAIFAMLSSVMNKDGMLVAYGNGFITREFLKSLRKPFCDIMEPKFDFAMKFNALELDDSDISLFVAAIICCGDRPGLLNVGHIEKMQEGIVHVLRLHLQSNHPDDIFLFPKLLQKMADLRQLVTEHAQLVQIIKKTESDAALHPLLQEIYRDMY
PPARa:RXRa, sequence (P19793 whole entry, chain 2 of 2): as the sequence (P19793 whole entry, chain 2 of 2) above
Method in brief: as §1

RXRa = RXRa (Homo sapiens, UniProt P19793); assay: no ligand; PBM; 180 nM; PBS pH 7.4, 2% milk, 0.02% Triton X-100, 1 mM DTT, BSA, 0.4 mg/ml salmon testes DNA; conditions: tags: His cleaved; chain copies: 2; label: surface-attached array probe
RXRa, sequence (P19793 whole entry): as the sequence (P19793 whole entry, chain 2 of 2) above

PPARg:RXRa, sequence (P37231 29-505, chain 1 of 2): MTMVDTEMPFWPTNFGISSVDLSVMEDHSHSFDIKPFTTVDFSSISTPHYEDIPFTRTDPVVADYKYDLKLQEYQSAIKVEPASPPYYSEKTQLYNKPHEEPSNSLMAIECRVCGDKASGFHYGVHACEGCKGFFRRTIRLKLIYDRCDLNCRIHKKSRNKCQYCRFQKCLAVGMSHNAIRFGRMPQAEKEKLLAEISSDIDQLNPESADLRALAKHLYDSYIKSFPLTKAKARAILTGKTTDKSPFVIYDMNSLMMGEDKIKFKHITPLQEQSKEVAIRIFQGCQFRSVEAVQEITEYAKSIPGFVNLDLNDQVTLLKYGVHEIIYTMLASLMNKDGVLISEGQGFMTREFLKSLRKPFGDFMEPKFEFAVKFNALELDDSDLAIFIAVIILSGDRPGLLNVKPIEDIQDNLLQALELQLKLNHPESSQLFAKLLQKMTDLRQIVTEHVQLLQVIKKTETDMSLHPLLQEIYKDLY
PPARg:RXRa, sequence (P19793 whole entry, chain 2 of 2): as the sequence (P19793 whole entry, chain 2 of 2) above

| Binder | binding signal (PPARg:RXRa) | further results |
| --- | --- | --- |
| NRC3_random_hg19_197_o1 (dsDNA) DNA 1: GCGCAACCTCTGCCTCTCAGGCTCAAGTGACCTTCCGCGATTGACAGCGTAGAATGAAGG DNA 2: CCTTCATTCTACGCTGTCAATCGCGGAAGGTCACTTGAGCCTGAGAGGCAGAGGTTGCGC | -0.35 PBM z-score against 500 random probes | binding signal (RARg:RXRa): 0.42 PBM z-score against 500 random probes; binding signal (RARb:RXRa): 0.45 PBM z-score against 500 random probes |
| NRC3_wobSeed1_DR0_C7G_o1 (dsDNA) DNA 1: GCCAAAGTAGGTCAAGGTCAAAGTCGGTTTGTGCCAGCGATTGACAGCGTAGAATGAAGG DNA 2: CCTTCATTCTACGCTGTCAATCGCTGGCACAAACCGACTTTGACCTTGACCTACTTTGGC | 10 PBM z-score against 500 random probes | – |
| NRC3_wobSeed1_DR0_A4T_o1 (dsDNA) DNA 1: GCCTAACTAGGTCAAGGTCAAAGTCGGTTTGTGCCAGCGATTGACAGCGTAGAATGAAGG DNA 2: CCTTCATTCTACGCTGTCAATCGCTGGCACAAACCGACTTTGACCTTGACCTAGTTAGGC | 10 PBM z-score against 500 random probes | – |
| NRC3_wobSeed1_DR0_C25A_o1 (dsDNA) DNA 1: GCCAAACTAGGTCAAGGTCAAAGTAGGTTTGTGCCAGCGATTGACAGCGTAGAATGAAGG DNA 2: CCTTCATTCTACGCTGTCAATCGCTGGCACAAACCTACTTTGACCTTGACCTAGTTTGGC | 9.94 PBM z-score against 500 random probes | – |
| NRC3_wobSeed46_DR1_C6T_o1 (dsDNA) DNA 1: GCTTATCAAGGTGAAAGGTCGTTGATGCACGCCTTGGCGATTGACAGCGTAGAATGAAGG DNA 2: CCTTCATTCTACGCTGTCAATCGCCAAGGCGTGCATCAACGACCTTTCACCTTGATAAGC | 10.9 PBM z-score against 500 random probes | binding signal (RARb:RXRa): 3.04 PBM z-score against 500 random probes |
| NRC3_random_hg19_393_o1 (dsDNA) DNA 1: GCTCCCAGCCACTCAGGAGGCTGAGGCAGGAGAATTGCGATTGACAGCGTAGAATGAAGG DNA 2: CCTTCATTCTACGCTGTCAATCGCAATTCTCCTGCCTCAGCCTCCTGAGTGGCTGGGAGC | -0.69 PBM z-score against 500 random probes | binding signal (FXR:RXRa): -1.65 PBM z-score against 500 random probes |
| NRC3_wobSeed40_DR1_A4G_o1 (dsDNA) DNA 1: GCTGGCCTAGGTCATGGGCCAGTATACCACGCGAACGCGATTGACAGCGTAGAATGAAGG DNA 2: CCTTCATTCTACGCTGTCAATCGCGTTCGCGTGGTATACTGGCCCATGACCTAGGCCAGC | 3.34 PBM z-score against 500 random probes | binding signal (RARg:RXRa): 4.24 PBM z-score against 500 random probes |
| NRC3_wobSeed41_DR1_T13G_o1 (dsDNA) DNA 1: GCATATGTAGGTGAAGGGTCATTCAGGTTGGTTCGCGCGATTGACAGCGTAGAATGAAGG DNA 2: CCTTCATTCTACGCTGTCAATCGCGCGAACCAACCTGAATGACCCTTCACCTACATATGC | 12.8 PBM z-score against 500 random probes | binding signal (PPARa:RXRa): 7.07 PBM z-score against 500 random probes |
| NRC3_wobSeed32_DR1_T20C_o1 (dsDNA) DNA 1: GCTCTTGTAGATCAAAGGTCAAGAAAGCCGAAGCCTGCGATTGACAGCGTAGAATGAAGG DNA 2: CCTTCATTCTACGCTGTCAATCGCAGGCTTCGGCTTTCTTGACCTTTGATCTACAAGAGC | 9.91 PBM z-score against 500 random probes | – |
| NRC3_random_hg19_62_o1 (dsDNA) DNA 1: GCAGATGGGAGAGTTCCCTTGATTCCTTTGTGGGAGGCGATTGACAGCGTAGAATGAAGG DNA 2: CCTTCATTCTACGCTGTCAATCGCCTCCCACAAAGGAATCAAGGGAACTCTCCCATCTGC | -0.56 PBM z-score against 500 random probes | binding signal (PPARa:RXRa): -0.1 PBM z-score against 500 random probes |
| NRC3_wobSeed26_DR1_C4T_o1 (dsDNA) DNA 1: GCTTTAGTTGGTCAAAGGTCACACACTCGAAATGCGGCGATTGACAGCGTAGAATGAAGG DNA 2: CCTTCATTCTACGCTGTCAATCGCCGCATTTCGAGTGTGTGACCTTTGACCAACTAAAGC | 12.1 PBM z-score against 500 random probes | binding signal (PPARa:RXRa): 6.88 PBM z-score against 500 random probes |
| NRC3_wobSeed35_DR1_T11G_o1 (dsDNA) DNA 1: GCGCTATTAGGTGAAAGGGCAACCGAATGATTCTCGGCGATTGACAGCGTAGAATGAAGG DNA 2: CCTTCATTCTACGCTGTCAATCGCCGAGAATCATTCGGTTGCCCTTTCACCTAATAGCGC | 9.85 PBM z-score against 500 random probes | – |
| NRC3_wobSeed17_DR0_T13C_o1 (dsDNA) DNA 1: GCATATGTAGGTCAGGGTCATTCAGAAAGTAGGGAAGCGATTGACAGCGTAGAATGAAGG DNA 2: CCTTCATTCTACGCTGTCAATCGCTTCCCTACTTTCTGAATGACCCTGACCTACATATGC | 9.79 PBM z-score against 500 random probes | – |
| NRC3_wobSeed89_DR3_T13G_o1 (dsDNA) DNA 1: GCCTATGTAGGTGAAGGGGGTCATTCAGTTTGAAAGGCGATTGACAGCGTAGAATGAAGG DNA 2: CCTTCATTCTACGCTGTCAATCGCCTTTCAAACTGAATGACCCCCTTCACCTACATAGGC | 9.64 PBM z-score against 500 random probes | – |
| NRC3_wobSeed15_DR0_G11T_o1 (dsDNA) DNA 1: GCCGAACTAGTTCAAGGACAGTGAATCTCCGCACGCGCGATTGACAGCGTAGAATGAAGG DNA 2: CCTTCATTCTACGCTGTCAATCGCGCGTGCGGAGATTCACTGTCCTTGAACTAGTTCGGC | 0.49 PBM z-score against 500 random probes | binding signal (PPARa:RXRa): 0.44 PBM z-score against 500 random probes |
| NRC3_wobSeed66_DR2_C20T_o1 (dsDNA) DNA 1: GCAATACAGGGTCACTAGGTCAGAGTAGGTACGAATGCGATTGACAGCGTAGAATGAAGG DNA 2: CCTTCATTCTACGCTGTCAATCGCATTCGTACCTACTCTGACCTAGTGACCCTGTATTGC | 9.89 PBM z-score against 500 random probes | – |
| NRC3_wobSeed47_DR1_G8T_o1 (dsDNA) DNA 1: GCGGAACTAGGGCAAAGTTGATAGCATCTGTCGACGGCGATTGACAGCGTAGAATGAAGG DNA 2: CCTTCATTCTACGCTGTCAATCGCCGTCGACAGATGCTATCAACTTTGCCCTAGTTCCGC | 10 PBM z-score against 500 random probes | – |
| NRC3_wobSeed27_DR1_C6A_o1 (dsDNA) DNA 1: GCACTAGGAGGACAAAGGTCAGAGCTACGCCAGTGAGCGATTGACAGCGTAGAATGAAGG DNA 2: CCTTCATTCTACGCTGTCAATCGCTCACTGGCGTAGCTCTGACCTTTGTCCTCCTAGTGC | 10 PBM z-score against 500 random probes | – |
| NRC3_wobSeed28_DR1_C4T_o1 (dsDNA) DNA 1: GCCTTACTGGGCCAAAGGTCATTGATTCCAATGCTCGCGATTGACAGCGTAGAATGAAGG DNA 2: CCTTCATTCTACGCTGTCAATCGCGAGCATTGGAATCAATGACCTTTGGCCCAGTAAGGC | 12.9 PBM z-score against 500 random probes | binding signal (PPARa:RXRa): 7.1 PBM z-score against 500 random probes |
| NRC3_wobSeed39_DR1_A19G_o1 (dsDNA) DNA 1: GCCGAACTAGGTCAAAGGGCAGTGAAAGGCGACGTAGCGATTGACAGCGTAGAATGAAGG DNA 2: CCTTCATTCTACGCTGTCAATCGCTACGTCGCCTTTCACTGCCCTTTGACCTAGTTCGGC | 12.3 PBM z-score against 500 random probes | binding signal (PPARa:RXRa): 6.69 PBM z-score against 500 random probes |
| NRC3_random_hg19_447_o1 (dsDNA) DNA 1: GCCTCTCTTTCTCTCTCTCTCTCTCTCTCTCTCTCTGCGATTGACAGCGTAGAATGAAGG DNA 2: CCTTCATTCTACGCTGTCAATCGCAGAGAGAGAGAGAGAGAGAGAGAGAGAAAGAGAGGC | -3.64 PBM z-score against 500 random probes | binding signal (RARg:RXRa): -0.31 PBM z-score against 500 random probes |
| NRC3_random_hg19_399_o1 (dsDNA) DNA 1: GCATGAGATTTCACTGTGTTAGCCAGGATGGTCTCCGCGATTGACAGCGTAGAATGAAGG DNA 2: CCTTCATTCTACGCTGTCAATCGCGGAGACCATCCTGGCTAACACAGTGAAATCTCATGC | 0.22 PBM z-score against 500 random probes | binding signal (RXRa): -0.2 PBM z-score against 500 random probes |
| NRC3_wobSeed133_DR5_T12A_o1 (dsDNA) DNA 1: GCCGTCCAAGGACAATGCTAGGTCAGTGAAAGCATTGCGATTGACAGCGTAGAATGAAGG DNA 2: CCTTCATTCTACGCTGTCAATCGCAATGCTTTCACTGACCTAGCATTGTCCTTGGACGGC | 0.18 PBM z-score against 500 random probes | binding signal (FXR:RXRa): 0.29 PBM z-score against 500 random probes |
| NRC3_random_hg19_404_o1 (dsDNA) DNA 1: GCACTTCGTGATCTGCCTGCCTTAGCCTCCCAAAGTGCGATTGACAGCGTAGAATGAAGG DNA 2: CCTTCATTCTACGCTGTCAATCGCACTTTGGGAGGCTAAGGCAGGCAGATCACGAAGTGC | -1.16 PBM z-score against 500 random probes | binding signal (RARb:RXRa): -0.25 PBM z-score against 500 random probes |
| NRC3_random_hg19_249_o1 (dsDNA) DNA 1: GCTTTCCCACAATGTGTAGTTAGAGTTTGAGTTGTGGCGATTGACAGCGTAGAATGAAGG DNA 2: CCTTCATTCTACGCTGTCAATCGCCACAACTCAAACTCTAACTACACATTGTGGGAAAGC | -0.37 PBM z-score against 500 random probes | binding signal (RARg:RXRa): -0.1 PBM z-score against 500 random probes |
| NRC3_wobSeed33_DR1_C5A_o1 (dsDNA) DNA 1: GCATATCTAGGTAAAAGTTCAGTGAATCCCGAGGATGCGATTGACAGCGTAGAATGAAGG DNA 2: CCTTCATTCTACGCTGTCAATCGCATCCTCGGGATTCACTGAACTTTTACCTAGATATGC | 10.1 PBM z-score against 500 random probes | – |
| NRC3_random_hg19_396_o1 (dsDNA) DNA 1: GCTTGTTGTGGTTGATGTTGTTCACTCTCAGTCTCCGCGATTGACAGCGTAGAATGAAGG DNA 2: CCTTCATTCTACGCTGTCAATCGCGGAGACTGAGAGTGAACAACATCAACCACAACAAGC | -0.98 PBM z-score against 500 random probes | binding signal (RARb:RXRa): 0.5 PBM z-score against 500 random probes |

— publication PMC6555819, “Comprehensive study of nuclear receptor DNA binding provides a revised framework for understanding receptor specificity”
